Assay results as given in the supplement of paper PMC12042874.
± gives the uncertainty stated by the source.

Assay: amyloid nucleation score (Sup35N fusion, yeast selection) (log enrichment); library NNK3; higher = more nucleation; inactive = no reads after selection
Outline: (§1)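 Libraries of peptides of 20 random codons fused to Sup35N were expressed in psi-negative yeast and induced 24 hours with 100 μM copper sulfate. Selection was 7 days at 30°C on medium lacking adenine and uracil, and plasmid inserts were Illumina-sequenced before and after selection. Nucleation score is the DiMSum log enrichment of output over input reads, centred on the mode score of non-aggregating sequences, and sequences with under 100 input reads were left out.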
In the case of TADLRRQTLGWGKFYYVSWF, the amyloid nucleation score is reported as “inactive”.
In the case of SKVKDDALPTTILCGTYNLN, the amyloid nucleation score is reported as “inactive”.
In the case of SPLLGINYRVFNVCLLERR, the amyloid nucleation score is reported as 0.909 ± 0.21.
In the case of SRVNCLARLRSPARLMPMVR, the amyloid nucleation score is reported as “inactive”.
With YVKMWHGFYFDRGNGRRDLN the amyloid nucleation score was “inactive”.
YIRLCSVFGTTWYARLDG gave an amyloid nucleation score of 0.459 ± 0.27.
In the case of YKEMVHRSG, the amyloid nucleation score is reported as “inactive”.
With AGGAMGVHRCPLLS the amyloid nucleation score was “inactive”.
SSPSWFTYLVKQVALRSVTQ gave an amyloid nucleation score of 1.55 ± 0.1.
In the case of TFSQGSWRTESSLRDGGCLD, the amyloid nucleation score is reported as “inactive”.
Substance VGGGSFCFKHRLNGGTDGHV has an amyloid nucleation score of 1.11 ± 0.13.
For KIMCGGTVSERETRTLHQSG, the amyloid nucleation score was “inactive”.
Substance RNHIALSLGWIQEDVIGSWN has an amyloid nucleation score of 0.991 ± 0.13.
In the case of NRTQRISWIWVLTPSDVLVS, the amyloid nucleation score is reported as “inactive”.
In the case of HCCVLSARGWLIGSMRWPHC, the amyloid nucleation score is reported as “inactive”.
With AMMHNIILFKFVLGYVLMSR the amyloid nucleation score was “inactive”.
For IVRIVK, the amyloid nucleation score was “inactive”.
For SYAGKGLTLQTHHDWRSGNG, the amyloid nucleation score was “inactive”.
With RDEVLNSHFIVGSRMRSNVA the amyloid nucleation score was 1.31 ± 0.14.
For LYRAIHHNKFLESACLRYAL, the amyloid nucleation score was “inactive”.
In the case of PTIQQDWIAFYIHSCEFLVL, the amyloid nucleation score is reported as “inactive”.
SHISWSQYRM showed an amyloid nucleation score of 1.58 ± 0.11.
For AANLDYSRLLEVLE, the amyloid nucleation score was “inactive”.
In the case of TLWMQILDAKYRSCSLRLRR, the amyloid nucleation score is reported as “inactive”.
In the case of DPGHGS, the amyloid nucleation score is reported as “inactive”.
With SCQKIALIWIRLTTDMRRRC the amyloid nucleation score was “inactive”.
In the case of VVSIAIGKYNDRSMWW, the amyloid nucleation score is reported as 1.75 ± 0.071.
In the case of ANVRMS, the amyloid nucleation score is reported as “inactive”.
In the case of RLHFCVGPMAPYSMEQSQ, the amyloid nucleation score is reported as “inactive”.
Work on LEFRNHPMSYYTLVGQCVRK yielded an amyloid nucleation score of -0.372 ± 0.8.
In the case of PIIHGCDDLRDFFIARICIS, the amyloid nucleation score is reported as “inactive”.
Work on LVFVCARQSTIEVRGKQSRM yielded an amyloid nucleation score of 2.06 ± 0.065.
In the case of DRCWMCLEAALQVAACVGSG, the amyloid nucleation score is reported as “inactive”.
For CLVKHRPHSEVACGADNVCR, the amyloid nucleation score was “inactive”.
In the case of AHFLLCNLA, the amyloid nucleation score is reported as “inactive”.
Substance YFCFVLFYLN has an amyloid nucleation score of 2.04 ± 0.07.
With PYSLPSP the amyloid nucleation score was “inactive”.
With RSHLWGRLASYAMGTHAG the amyloid nucleation score was “inactive”.
In the case of DYGSFMYSLTSCMVNYWYMA, the amyloid nucleation score is reported as “inactive”.
For VCSLVGKKRPHGSTSI, the amyloid nucleation score was “inactive”.
With FDYLLYQLCYVYRTYKTVRR the amyloid nucleation score was “inactive”.
For PGNNFKNAAESFRKAYMCRR, the amyloid nucleation score was “inactive”.
With LTRLLGDLIPPVNMGARECD the amyloid nucleation score was “inactive”.
For PSTDSINDV, the amyloid nucleation score was “inactive”.
For IAGMCGRGWREPLVERSGKD, the amyloid nucleation score was “inactive”.
With MFDIVNKTSELL the amyloid nucleation score was “inactive”.
For EGPVSGPC, the amyloid nucleation score was “inactive”.
With YTLRCDFLRNTA the amyloid nucleation score was “inactive”.
In the case of EVNWSIIRGWVEISYTVPEL, the amyloid nucleation score is reported as “inactive”.
For CLFRDDRNRVDI, the amyloid nucleation score was “inactive”.
For YIWTMWSSSLCVLMGAKGAA, the amyloid nucleation score was “inactive”.
For RCGTLYRGG, the amyloid nucleation score was “inactive”.
With CVTRDDLCYW the amyloid nucleation score was “inactive”.
With SRRTIVNQSSF the amyloid nucleation score was “inactive”.
With HLPKLLYATFKWSRYSSKFA the amyloid nucleation score was -0.172 ± 1.3.
With RPYGSEVVIFMSVSRKPPPA the amyloid nucleation score was 0.661 ± 0.14.
For CGLPTVKTYRMEMSYNRLDW, the amyloid nucleation score was “inactive”.
Work on SIVDSVQQVSVRWAMYT yielded an amyloid nucleation score of -0.433 ± 1.8.
For VFSDTRCVCRKRSSVFKIVS, the amyloid nucleation score was “inactive”.
With RCLMDMFHILPKKSGVFSIT the amyloid nucleation score was “inactive”.
In the case of IVYPFSGLMPDGAFRKEFDA, the amyloid nucleation score is reported as “inactive”.
With FLMVLSMDLYVKLLLGSYIN the amyloid nucleation score was “inactive”.
With DGAEDCRS the amyloid nucleation score was -1.03 ± 2.5.
In the case of LNFCDRTIEICRLEY, the amyloid nucleation score is reported as “inactive”.
For FYILCHHKDCNIGHPILGGK, the amyloid nucleation score was “inactive”.
With CYGLSRCTRAEAMCPKG the amyloid nucleation score was “inactive”.
In the case of YWVCPIGFFNCWLNRMTRLM, the amyloid nucleation score is reported as 1.59 ± 0.12.
With AKMNYKLWRDVA the amyloid nucleation score was “inactive”.
For NSYFKPVKSCNLQLGEVTLQ, the amyloid nucleation score was “inactive”.
With RCSYLMRLYISSFMY the amyloid nucleation score was “inactive”.
Work on KVRQARGILASEGIGQETVG yielded an amyloid nucleation score of 1.33 ± 0.14.
In the case of TATHKLTNIPW, the amyloid nucleation score is reported as “inactive”.
For SSLTSNCPRKALKREVVRHW, the amyloid nucleation score was “inactive”.
With ACLFCLGDWEGFVSD the amyloid nucleation score was “inactive”.
In the case of FFVRH, the amyloid nucleation score is reported as “inactive”.
In the case of GDEWGSFLECFITITSSIND, the amyloid nucleation score is reported as “inactive”.
For GMFMCMKMVFFLKWYINLYF, the amyloid nucleation score was “inactive”.
With WLSRLVGFALSTKLGP the amyloid nucleation score was “inactive”.
Substance LYFSFIFNLSIQGDAEFVSN has an amyloid nucleation score of 2.49 ± 0.051.
With AICVLRSMKLLYQVWTW the amyloid nucleation score was “inactive”.
For DNHVVKVQL, the amyloid nucleation score was “inactive”.
In the case of SVWLASCYHLIWVELGRWDI, the amyloid nucleation score is reported as “inactive”.
With YVDPRGVTVSWMSIYSRRAL the amyloid nucleation score was “inactive”.
With FQWITSIRSSKKMGCY the amyloid nucleation score was “inactive”.
With LSKRRTIILGLVELRYSEVE the amyloid nucleation score was “inactive”.
With RLYNTIFPSKKIWYKKLEGC the amyloid nucleation score was “inactive”.
LFEDKCGNPWRNY gave an amyloid nucleation score of -0.126 ± 0.88.
Work on CPSWCYFNRGDV yielded an amyloid nucleation score of 1.39 ± 0.091.
For FLFRC, the amyloid nucleation score was “inactive”.
In the case of YLHVVTWLMNACPGQPRHWL, the amyloid nucleation score is reported as “inactive”.
For EWFCLCWT, the amyloid nucleation score was “inactive”.
In the case of TFQRSGT, the amyloid nucleation score is reported as “inactive”.
In the case of APDFATIFITRWGDIQTLLV, the amyloid nucleation score is reported as “inactive”.
For RGLWLEQRAVNNYVGR, the amyloid nucleation score was -0.291 ± 0.46.
Substance YKSVYMRF has an amyloid nucleation score of 0.709 ± 0.18.
With TEGLKIFDDET the amyloid nucleation score was “inactive”.
ACYFWFNINIEHAR gave an amyloid nucleation score of 1.78 ± 0.11.
For MYREFYLNDQFNRPFPQSMD, the amyloid nucleation score was “inactive”.
In the case of SAPNYVRSSLFCN, the amyloid nucleation score is reported as “inactive”.
With LRLSGVMHRTFYCVVSGHGR the amyloid nucleation score was “inactive”.
With GNMKNHTMQFAEVVDGDFTM the amyloid nucleation score was “inactive”.
In the case of GWWRMAWLV, the amyloid nucleation score is reported as “inactive”.

Assay: amyloid nucleation score (Sup35N fusion, yeast selection) (log enrichment); library NNK2; higher = more nucleation; inactive = no reads after selection
Outline: as §1
In the case of LFGTNFYVQDNIVKGRVLIM, the amyloid nucleation score is reported as “inactive”.
For QFNFCKLAGQPLMFEFIDGV, the amyloid nucleation score was 5.58 ± 0.059.
YMLMMALFQRC showed an amyloid nucleation score of 2.75 ± 0.15.
For YRFKIMCLVSPHFV, the amyloid nucleation score was 0.736 ± 0.6.
AGRNIGIHIVGLDRQRSSAN showed an amyloid nucleation score of 0.278 ± 0.31.
Work on MASTIWIMLVYDLNARKMHI yielded an amyloid nucleation score of 4.87 ± 0.073.
With WLLILLDISTSDFLQCWIGM the amyloid nucleation score was -0.037 ± 0.65.
With SYYISHYMSVWISLTDSGCY the amyloid nucleation score was -0.14 ± 0.56.
Substance ETRRSYV has an amyloid nucleation score of 0.563 ± 0.38.
For SVWGKD, the amyloid nucleation score was 0.073 ± 0.63.
For PVYRACILIDM, the amyloid nucleation score was 3.18 ± 0.054.
KKSSECHKSEG gave an amyloid nucleation score of 0.361 ± 0.45.
FLCYKISSFVSICKQQEAHA showed an amyloid nucleation score of -0.064 ± 1.1.
Work on LWRVGHVHSWICPAICHGKC yielded an amyloid nucleation score of 4.37 ± 0.057.
For FCFFSLVRLYKGYRSSINLA, the amyloid nucleation score was “inactive”.
LYLRRWSPGLVMIQYPIILW gave an amyloid nucleation score of 0.545 ± 0.42.
With FTAMNIGNACMESQALPWNL the amyloid nucleation score was 0.198 ± 0.65.
TYVDTVFSGSGCYLLYKGWI gave an amyloid nucleation score of 0.851 ± 0.57.
Work on WRSDLAVGFYKEMHSRRING yielded an amyloid nucleation score of -0.992 ± 0.36.
With ATQRHVSTGKSGSN the amyloid nucleation score was 0.606 ± 0.8.
In the case of SILIFTLTCSDRNW, the amyloid nucleation score is reported as -0.245 ± 0.76.
Substance SAVNHTYVGD has an amyloid nucleation score of 0.122 ± 1.1.
Work on CLYCVMASQWGCFGLVESVT yielded an amyloid nucleation score of 1.73 ± 0.47.
DRPSCEFEPMFRRWDYSEGA showed an amyloid nucleation score of 0.11 ± 0.23.
For TRINMGIFCLQDKVPMLRDE, the amyloid nucleation score was 3 ± 0.082.
In the case of ILVLW, the amyloid nucleation score is reported as -0.022 ± 0.46.
Work on RVSTNGFVSQPMRWYVIVDS yielded an amyloid nucleation score of -0.142 ± 0.25.
For FLINFAMIISIFRLSYHRPV, the amyloid nucleation score was -0.599 ± 0.55.
Work on YSMPRSN yielded an amyloid nucleation score of -0.548 ± 0.45.
In the case of AYSKTNVFNSWWLVKCLFLF, the amyloid nucleation score is reported as “inactive”.
For VFFNYSNCLGLA, the amyloid nucleation score was “inactive”.
In the case of NNLLRYSVFNI, the amyloid nucleation score is reported as “inactive”.
In the case of NVLSRYYQPYMAPPENKAWD, the amyloid nucleation score is reported as -0.277 ± 1.
SHLPVWTSKNARSRCDP showed an amyloid nucleation score of 0.602 ± 0.25.
Work on NVYIKRIWVPFSP yielded an amyloid nucleation score of -0.173 ± 0.36.
EIVLFFCPVVKCME gave an amyloid nucleation score of 3.08 ± 0.098.
Work on MVLNIDCFCDFYLALSCMSI yielded an amyloid nucleation score of 5.58 ± 0.079.
Substance FSVFTD has an amyloid nucleation score of -0.678 ± 0.61.
Substance ERVQMFQIRVQSAYVVFGVS has an amyloid nucleation score of 4.75 ± 0.077.
Substance HQVFPAKAGLPALVYLLGFY has an amyloid nucleation score of 0.602 ± 0.81.
For NISDFVKLVSYWVSVRCDLR, the amyloid nucleation score was -0.305 ± 1.1.
In the case of YFDGVIWLLTYRIFMANDYS, the amyloid nucleation score is reported as “inactive”.
GLSAMDDRMVPRIIYWIRLW gave an amyloid nucleation score of -0.217 ± 0.36.
With SLFTYGVISDHMGNMVPWND the amyloid nucleation score was -0.352 ± 1.1.
With MYLTCFWVGQDGKGRKDGGV the amyloid nucleation score was 5.62 ± 0.078.
With IYVRLLDSDTSYWVQFVFLQ the amyloid nucleation score was “inactive”.
LRMNYIAAVHSCAVLHHFNA gave an amyloid nucleation score of 3.13 ± 0.073.
For RTPFEDKVSIGDDSRSRADL, the amyloid nucleation score was 0.414 ± 0.41.
LMLGSWQDKMPSLLWLDLCV showed an amyloid nucleation score of 0.86 ± 0.52.
With TSAPSKSLLLGVIIIGAFPD the amyloid nucleation score was “inactive”.
Substance SWKFNRASPSEMMCASNAWN has an amyloid nucleation score of 0.404 ± 0.8.
In the case of VFTGNLICYMDGGTGFSCFQ, the amyloid nucleation score is reported as 9.018 ± 0.029.
For FHRPWTFLLLNLPTRGFFLR, the amyloid nucleation score was “inactive”.
SFNVF showed an amyloid nucleation score of -0.094 ± 0.6.
In the case of RILFNRS, the amyloid nucleation score is reported as 0.107 ± 0.4.
In the case of HSFPRCNSVHWPDDIGGCDG, the amyloid nucleation score is reported as 4.58 ± 0.047.
For VWLGVTSSPIIMSKNMSNVV, the amyloid nucleation score was 0.404 ± 0.36.
AWHSRTFVSLSLGRTSVEVL showed an amyloid nucleation score of -0.242 ± 0.45.
Substance NKATNKTDRVMKPSAKKDTE has an amyloid nucleation score of -0.796 ± 0.39.
